Assay results taken from patent US9850300B2, “Compositions and methods relating to inhibiting cancer cell growth and/or proliferation” (The Regents of the University of Michigan, priority 2013, dated 2017).
“Also recorded” adds a separate entry of the source.

Assays:
[1] = tested on: SKOV3, OVCAR3, OVCAR8, and primary ovarian tumor cells; assay: EGFL6 treatment of ovarian cancer cells, total cell number; assay type: cell-based
Excerpt: EGFL6 was next expressed in HEK293 cells, NIH3T3 cells, and SKOV3 ovarian cancer cells. Western blot analysis confirmed secretion of EGLF6 in both transient and stable transfectants (FIG. 2Ai, 2D) from all three cell lines. EGFL6 protein was purified to >95% purity (FIG. 2Aii) and treated ovarian cancer cells with either purified EGFL6, supernatant from EGFL6-expressing HEK293 cells, or supernatant from control transfected HEK293 cells. Purified fusion protein and supernatant from EGFL6 transfected cells had similar effects. EGFL6 treatment of SKOV3, OVCAR3, OVCAR8, and primary ovarian tumor cells was associated with a 30-40% increase in total cell number (FIG. 2B).
SKOV3, A2008, and A2780 were maintained in RPMI-1640, supplemented with 10% FBS with 1% Penicillin/Streptomycin, and cultured in humidified atmosphere of 5% CO2 at 37° C. For all in vitro cell culture experiments, isolated cells were allow to recover overnight following FACS, prior to treatment. Infantile Hemangioma Stem cells were maintained in EBM-2 medium with growth factor supplement cocktails in culture plates coated with fibronectin. For Echistatin and EGFL6 treatment, cells were pretreated with Echistatin (Sigma, 100 nM) for 24 hours prior to EGFL6 treatment. All transfections were performed using FuGene6 reagent (Promega) per company protocol. […]

[2] = tested on: ALDH+ CSCs in SKOV3 cells; assay: ALDH+ cell percentage and number (ALDEFLUOR FACS); assay type: cell-based
Excerpt: It has been shown that aldehyde dehydrogenase enzymatic activity (ALDH) is an excellent marker of ovarian CSCs in SKOV3 cells and primary patient samples (see, e.g., Silva, I. A., et al. Cancer Res (2011); Landen, C. N., Jr., et al. Mol Cancer Ther 9, 3186-3199 (2010); Steg, A. D., et al. Clin Cancer Res 18, 869-881 (2012); Kryczek, I., et al. Int J Cancer 130, 29-39 (2012); Deng, S., et al. PLoS ONE 5, e10277 (2010)). The impact of EGFL6 treatment on the percentage of ALDH^+ CSCs in vitro was next assessed. […] However, given the increase in total cell numbers, the absolute ALDH^+ CSC number remained unchanged (FIG. 3Aiii). […] Human ovarian cancer ascites cells were also treated with EGFL6 in a tumor sphere assay. Once again, treatment with EGLF6 was associated with a reduction in ALDH^+ cell percentages in tumor spheres (FIG. 3B).
SKOV3, A2008, and A2780 were maintained in RPMI-1640, supplemented with 10% FBS with 1% Penicillin/Streptomycin, and cultured in humidified atmosphere of 5% CO2 at 37° C. For all in vitro cell culture experiments, isolated cells were allow to recover overnight following FACS, prior to treatment. Infantile Hemangioma Stem cells were maintained in EBM-2 medium with growth factor supplement cocktails in culture plates coated with fibronectin. For Echistatin and EGFL6 treatment, cells were pretreated with Echistatin (Sigma, 100 nM) for 24 hours prior to EGFL6 treatment. All transfections were performed using FuGene6 reagent (Promega) per company protocol.
FACS assay was performed as previously described (see, e.g., Silva, I. A., et al. Cancer Res (2011)). Briefly, SKOV3 cells or primary ovarian tumor/ascetics cells were stained for ALDH using ALDEFLUOR kit per company protocol (Stem Cell Technologies). DAPI staining was used to exclude non-viable cells. For FACS cell sorting, equal number of ALDH and ALDH^(−) cells were collected for subsequent experiments.
EGFL6 monoclonal antibody producing hybridoma cells were maintained in RPMI medium supplemented with 10% FBS. For antibody purification, the cells were cultured in reduced FBS (5%). […]

[3] = tested on: primary ALDH+ and ALDH(−) cells; assay: Single cell microfluidic culture, cell division type; assay type: cell-based, human
Excerpt: For primary cells, it was observed that over 50% of untreated ALDH^(−) cells underwent no division over 5 days, while remaining cells underwent symmetric division. […] 20% of ALDH^+ cells underwent no division. EGFL6 treatment of primary ALDH^+ cells was associated with a 1.9-fold increase in the number of ALDH^+ cells undergoing asymmetric division (FIG. 3Dii). EGFL6 treatment was associated with an increase in total cell numbers (90 EGFL6 treated cells yielded 585 total cells while 82 mock-treated cells yielded 451 cells).
Informed consent was obtained from all patients before tissue procurement. All studies were performed with the approval of the Institutional Review Board of the University of Michigan. All tumors were stage III or IV epithelial ovarian or primary peritoneal cancer. Tumors were mechanically dissected into single-cell suspensions and isolated on a ficoll gradient as previously described (see, e.g., Pulaski, H. L., et al. J Transl Med 7, 49 (2009)). For ascites, cell pellets were collected by centrifugation; red cells were lysed using ACK buffer (Lonza, Hopkinton, Mass.), washed, passed through a 40-μm filter, then passed 4 times through a Standard Hub Pipetting needle to isolate single cells (see, e.g., Silva, I. A., et al. Cancer Res (2011)).

[4] = tested on: cellular migration; assay: Transwell migration assay with EGFL6 protein as chemoattractant; assay type: cell-based
[5] = tested on: ALDH+ and ALDH− cells; assay: Microfluidics device migration of individual cells in an EGFL6 gradient; assay type: cell-based
Excerpt: EGF factors have been reported to enhance the migration and invasion of various cell populations. The impact of EGFL6 on cellular migration was therefore assessed. […] Finally, a novel microfluidics device was used to determine the impact of EGFL6 on the migration of individual cells. To more specifically assess the impact on ovarian CSC versus progenitors, ALDH+ and ALDH− cells were sorted and loaded into individual channels of a microfluidics device in which migration could be directly monitored. EGFL6 was added to a reservoir at one side of the device to create a gradient of expression. EGFL6 had no impact on the migration of ALDH(−) cells.

[6] = increasing concentrations of EGFL6

B1: EGFL6: recombinant EGFL6-flag protein from transfected HEK293 cells, used purified or as 72 hr supernatant (protein)
chain: NAASARHHGLLASARQPGVCHYGTKLACCYGWRRNSKGVCEATCEPGCKFGECVGPNKCRCFPGYTGKTCSQDVNECGMKPRPCQHRCVNTHGSYKCFCLSGHMLMPDATCVNSRTCAMINCQYSCEDTEEGPQCLCPSSGLRLAPNGRDCLDIDECASGKVICPYNRRCVNTFGSYYCKCHIGFELQYISGRYDCIDINECTMDSHTCSHHANCFNTQGSFKCKCKQGYKGNGLRCSAIPENSVKEVLRAPGTIKDRIKKLLAHKNSMKKKAKIKNVTPEPTRTPTPKVNLQPFNYEEIVSRGGNSHGGKKGNEEKMKEGLEDEKREEKALKNDIEERSLRGDVFFPKVNEAGEFGLILVQRKALTSKLEHKDLNISVDCSFNHGICDWKQDREDDFDWNPADRDNAIGFYMAVPALAGHKKDIGRLKLLLPDLQPQSNFCLLFDYRLAGDKVGKLRVFVKNSNNALAWEKTTSEDEKWKTGKIQLYQGTDATKSIIFEAERGKGKTGEIAVDGVLLVSGLCPDSLLSVDD
increase in total cell number ([1]; EGFL6 treatment vs control supernatant): 30-40% | total cell numbers [1, 6]: increasing total cell numbers | percentages of ALDH+ CSCs ([2]; EGFL6 treatment): decreasing percentages; also recorded: reduced | absolute ALDH+ CSC number [2, 6]: unchanged | total cells yielded ([3]; from 90 EGFL6 treated primary cells): 585 total cells | symmetric divisions of ALDH(−) cells ([3]; primary ALDH(−) cells, 5 days): non-statistically significant increase | increase in the number of ALDH+ cells undergoing asymmetric division ([3]; primary ALDH+ cells): 1.9 fold | cellular migration in transwell assay [4]: increased cellular migration | migration of ALDH(−) cells [5]: no impact | migration of ALDH+ cells [5]: robust migration
